Assay results published in paper PMC10359615, “Mechanistic insight into AP-endonuclease 1 cleavage of abasic sites at stalled replication fork mimics”.

B1: Cy3-Rec-PTJ (mixed)
DNA 1: ACTCCTTCCGCACGTAATTTTTGACGCAC
DNA 2: TGACTCTTCTGCGTTCGCTGATGCGCCGACGGGTGCGTCAAAAATTACGTGCGGAAGGAGT
modifications: THF 7 nt from the junction

Key:
[1] = molecular target: RPA (RPA1/RPA2/RPA3 heterotrimer) (human, UniProt P27694;P15927;P35244 1-616;1-270;1-121); experiment: mass photometry; 4:1 RPA:DNA; a single RPA per DNA; EMSA: 50 mM Tris pH 8, 1 mM EDTA, 0.2 mg/ml BSA, 1 mM DTT, 5% sucrose, room temperature, 5 nM DNA; FRET: 20 mM HEPES pH 7.5, 150 mM KCl, 5 mM MgCl2, 5 mM CaCl2, 1 mM DTT, ionic strength 200 mM with KCl, 23 C; conditions: protein: recombinant; copies: 1;1;1
Chain of RPA (RPA1/RPA2/RPA3 heterotrimer) (P27694 whole entry, chain 1 of 3): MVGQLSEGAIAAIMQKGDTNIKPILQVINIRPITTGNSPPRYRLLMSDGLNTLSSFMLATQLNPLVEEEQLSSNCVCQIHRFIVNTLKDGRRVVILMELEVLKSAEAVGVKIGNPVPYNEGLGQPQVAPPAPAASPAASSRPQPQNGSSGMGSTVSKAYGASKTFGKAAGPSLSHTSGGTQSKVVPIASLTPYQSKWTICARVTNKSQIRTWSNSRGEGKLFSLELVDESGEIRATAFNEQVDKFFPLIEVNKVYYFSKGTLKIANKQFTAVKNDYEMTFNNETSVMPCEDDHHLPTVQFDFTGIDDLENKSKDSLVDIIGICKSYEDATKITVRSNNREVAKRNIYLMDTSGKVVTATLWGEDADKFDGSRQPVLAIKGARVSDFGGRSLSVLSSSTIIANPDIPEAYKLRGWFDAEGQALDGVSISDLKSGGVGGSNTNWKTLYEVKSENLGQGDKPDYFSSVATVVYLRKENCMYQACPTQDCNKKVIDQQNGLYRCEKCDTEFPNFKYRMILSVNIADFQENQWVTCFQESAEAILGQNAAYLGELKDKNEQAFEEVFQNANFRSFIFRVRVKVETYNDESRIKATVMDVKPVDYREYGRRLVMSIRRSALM
Chain of RPA (RPA1/RPA2/RPA3 heterotrimer) (P15927 whole entry, chain 2 of 3): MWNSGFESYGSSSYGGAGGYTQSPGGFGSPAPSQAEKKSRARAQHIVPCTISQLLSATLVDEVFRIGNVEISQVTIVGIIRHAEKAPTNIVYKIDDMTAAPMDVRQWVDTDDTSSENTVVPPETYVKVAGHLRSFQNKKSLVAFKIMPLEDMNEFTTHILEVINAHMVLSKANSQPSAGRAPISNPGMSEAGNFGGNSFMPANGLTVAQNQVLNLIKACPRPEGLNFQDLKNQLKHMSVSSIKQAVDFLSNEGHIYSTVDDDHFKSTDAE
Chain of RPA (RPA1/RPA2/RPA3 heterotrimer) (P35244 whole entry, chain 3 of 3): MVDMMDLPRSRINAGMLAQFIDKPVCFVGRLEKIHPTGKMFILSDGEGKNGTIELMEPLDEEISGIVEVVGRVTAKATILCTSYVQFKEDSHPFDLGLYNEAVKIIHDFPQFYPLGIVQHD

[2] = molecular target: APE1Dead (catalytically dead APE1) (human, UniProt P27695 1-318, D210N;E96Q); experiment: competition; FRET; DNA pre-saturated with 75 nM Cy5-RPA; APE1Dead completely exchanges for RPA; EMSA: 50 mM Tris pH 8, 1 mM EDTA, 0.2 mg/ml BSA, 1 mM DTT, 5% sucrose, room temperature, 5 nM DNA; FRET: 20 mM HEPES pH 7.5, 150 mM KCl, 5 mM MgCl2, 5 mM CaCl2, 1 mM DTT, ionic strength 200 mM with KCl, 23 C; conditions: protein: recombinant; label: Cy3 at primer 3' end; 3' recessed primer-template junction, 5' ssDNA overhang 33 nt
Chain of APE1Dead (catalytically dead APE1) (P27695 whole entry E96Q/D210N): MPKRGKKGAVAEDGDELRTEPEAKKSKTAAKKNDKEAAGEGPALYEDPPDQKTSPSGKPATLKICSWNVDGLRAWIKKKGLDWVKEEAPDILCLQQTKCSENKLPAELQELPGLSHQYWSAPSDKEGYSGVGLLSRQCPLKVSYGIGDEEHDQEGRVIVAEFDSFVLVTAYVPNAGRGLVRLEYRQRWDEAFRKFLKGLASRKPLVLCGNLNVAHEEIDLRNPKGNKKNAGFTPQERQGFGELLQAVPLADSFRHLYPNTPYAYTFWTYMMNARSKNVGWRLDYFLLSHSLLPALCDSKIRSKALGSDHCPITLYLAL

Row | Binder | binding result [1] | binding result [2]
1 | TTTTTTTTTTTTTTTTTTTTTTTTTTTTTTTTTTT (ssDNA) [(dT)35] | binds | 
2 | B1 |  | binds
